Test results taken from patent US20250270343A1 (Alector, published 2025).
Changes are numbered by the printed parent chain.

T1: soluble human GPNMB-Fc polypeptide (human, UniProt Q14956 23-498, limits assumed)
T1 construct: also called huGPNMB-Fc; not shown: Fc domain
T1 sequence (looked up): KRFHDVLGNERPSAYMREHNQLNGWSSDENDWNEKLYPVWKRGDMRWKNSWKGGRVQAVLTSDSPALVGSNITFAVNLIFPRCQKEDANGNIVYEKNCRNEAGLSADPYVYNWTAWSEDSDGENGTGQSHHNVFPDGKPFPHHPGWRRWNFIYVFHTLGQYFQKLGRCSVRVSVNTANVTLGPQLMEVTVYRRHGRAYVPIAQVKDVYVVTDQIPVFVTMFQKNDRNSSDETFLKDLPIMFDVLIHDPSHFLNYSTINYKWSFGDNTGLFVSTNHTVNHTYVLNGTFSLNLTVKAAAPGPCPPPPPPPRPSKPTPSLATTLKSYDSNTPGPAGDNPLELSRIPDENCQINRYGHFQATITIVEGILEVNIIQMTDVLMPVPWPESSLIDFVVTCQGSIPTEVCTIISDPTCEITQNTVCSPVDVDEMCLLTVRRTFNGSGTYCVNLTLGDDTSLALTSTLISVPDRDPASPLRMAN

B1: recombinant Fab2 fragment of anti-GPNMB antibody GPN-37 (other)
VH: EVQLVESGGGLVQPGRSLKLSCAASGFTFSSKSGMAWVRQAPTKGLEWVASISNGGGDTYYRDSVKGRFTISRDNAKNTQYLQMDSLRPEDTATYYCARHRDYGYDAYFDYWGQGVMVTVSS
VL: DIQMTQSPASLSASLGETVTIECLASEDIYSSLAWYQQKPGKSPQLLIYDASSLQDGVPSRFSGSESGTQYSLEINSLQSEDAATYFCQQHHDYPYTFGAGTKLELK
notes: also called GPN-37 Fab2
B2: recombinant Fab2 fragment of anti-GPNMB antibody GPN-35 (other)
VH: EVQLVESGGGSVRPGRSLKLSCAAAGFTFSDYYMTWVRQAPTKGLEWVASINHDGGGTYYRDSVKGRFTISRDNARSSLYLQMDSLRSEDTGTYYCTTRAGWHWGQGVMVTVSS
VL: DIQMTQSPASLSASLGETVSIECLASEDIYNYLTWYQQKPGKSPQVLIYSASGLQDGVPSRFSGSGSGRQYSLKINGLESEDAATYFCLQDSEYPLTFGSGTKLEIK
notes: also called GPN-35 Fab2
B3: recombinant Fab2 fragment of anti-GPNMB antibody GPN-65 (other)
VH: QLQLQQSGTEVVKPGASVKIPCKASGYAFSSYWMNWVKQRPGKGLEWIGQIYPGDGDTNDNGKFEGKATLTVDKSSNTAYIQLSSLTSEDSAVYFCARSPLHLRGSMDYWGQGTSVTVSS
VL: SIVMTQTPKFLLVSAGDRVTITCKASQSVSNDVAWFQQKPGQSPELLIYSASNRYTGVPDRFTGSGYGTDFTFTISTVQAEDLAVYFCQQNYYSPFTFGGGTRLEIK
notes: also called GPN-65 Fab2
B4: recombinant Fab2 fragment of anti-GPNMB antibody GPN-41 (other)
VH: B3 VH
VL: B3 VL with G64A, T77A
notes: also called GPN-41 Fab2
B5: soluble mouse GPNMB-Fc polypeptide (Fc of human IgG1 or mouse IgG2A, not specified for the assay) (Fc fusion, UniProt Q99P91 23-502, looked up)
chain: KRFRDVLGHEQYPDHMREHNQLRGWSSDENEWDEHLYPVWRRGDGRWKDSWEGGRVQAVLTSDSPALVGSNITFVVNLVFPRCQKEDANGNIVYEKNCRNDLGLTSDLHVYNWTAGADDGDWEDGTSRSQHLRFPDRRPFPRPHGWKKWSFVYVFHTLGQYFQKLGRCSARVSINTVNLTAGPQVMEVTVFRRYGRAYIPISKVKDVYVITDQIPVFVTMSQKNDRNLSDEIFLRDLPIVFDVLIHDPSHFLNDSAISYKWNFGDNTGLFVSNNHTLNHTYVLNGTFNLNLTVQTAVPGPCPPPSPSTPPPPSTPPSPPPSPLPTLSTPSPSLMPTGYKSMELSDISNENCRINRYGYFRATITIVEGILEVSIMQIADVPMPTPQPANSLMDFTVTCKGATPMEACTIISDPTCQIAQNRVCSPVAVDGLCLLSVRRAFNGSGTYCVNFTLGDDASLALTSTLISIPGKDPDSPLRAVN
notes: extracellular domain; also called moGPNMB-Fc; mGPNMB; not shown: Fc region of human IgG1 or mouse IgG2A; in the Fab2 assay detected with anti-human IgG1 secondary antibody
B6: recombinant Fab2 fragment of anti-GPNMB antibody GPN-38 (other)
VH: QVQLQQPGAELVRPGTSVRLSCKASGYTFTSYWIHWVKQRPGRGLEWIGVIDPSDSYTNYNQQFNVKATLTVDTSSSAAYMQLSSLTSEDSAVYYCARGLITAVNWYFDVWGTGTTVTVSS
VL: DIQMTQSPASLSTSVGEIVTITCRASENIYSYLTWYQQKQGKSPQLLVYNAKTLAEGVPSRFSGSGSGTQFSLKINSLQPEDFGTYYCQHHYGTPLTFGSGTKLEIK
notes: also called GPN-38 Fab2

What was measured:
[1] = molecular target: T1, soluble human GPNMB-Fc polypeptide; assay: FACS, Fab2 blocking huGPNMB-Fc binding to SVEC4-10 cells
Description: (§1) Purified recombinant Fab2 fragments of select anti-GPNMB antibodies of the present disclosure were produced through transient transfection and purified. Briefly, 2 ug/mL soluble mouse or human GPNMB-Fc diluted in binding buffer was pre-complexed with increasing concentrations of anti-GPNMB Fab2 fragments in 96-well plates. Subsequently, 100,000 SVEC4-10 cells were added per well and incubated on ice for 30 minutes. Soluble moGPNMB-Fc or huGPNMB-Fc bound to cell surface was detected with fluorescent anti-human IgG1 secondary antibody and measured on FACSCanto. IC50 and EC50 values based on changes in MFI values were calculated for each antibody.

[2] = molecular target: B5; assay: FACS, Fab2 blocking moGPNMB-Fc binding to SVEC4-10 cells
Description: as §1

[3] = molecular target: B5; assay: FACS, Fab2 enhancing moGPNMB-Fc binding to SVEC4-10 cells
Description: as §1

[4] = molecular target: T1, soluble human GPNMB-Fc polypeptide; assay: FACS, Fab2 enhancing huGPNMB-Fc binding to SVEC4-10 cells
Description: as §1

[5] = molecular target: B5; assay: FACS ligand binding assay: 2 ug/mL moGPNMB-Fc pre-complexed with rising Fab2, then SVEC4-10 cells; blocked ligand: unidentified ligand(s) on SVEC4-10 cells; bound GPNMB-Fc detected with anti-human IgG1 secondary
Description: as §1

[6] = molecular target: T2, unidentified GPNMB ligand(s) on the surface of NHLF cells; assay: flow cytometry, titration of soluble moGPNMB-Fc on normal human lung fibroblasts; MFI-APC against concentration (ug/mL)
T2 construct: written like m62, for NHLF cells; also called Normal Human Lung Fibroblast Cells
Description: The extracellular domain of GPNMB protein contains putative protein- or carbohydrate-binding domains capable of recognizing various ligands on the cell surface. […] Soluble mouse GPNMB-Fc polypeptide, consisting of the extracellular domain of mouse GPNMB and an Fc region of human IgG1 or mouse IgG2A (R&D System) (moGPNMB or mGPNMB) was used to confirm the binding activity of GPNMB towards different cell lines. Binding properties of soluble moGPNMB-Fc were examined by flow cytometry. Different cell lines (mouse SVEC4-10 cells, normal human lung fibroblasts (NHLF), mouse astrocytes, and human astrocytes were nonenzymatically harvested, plated at 100,000 cells/well, and incubated with increasing concentrations moGPNMB-Fc or control human IgG1 or control mouse IgG2A, in binding buffer (Hanks' balanced salt solution containing 1.3 mM CaCl₂, 0.8 mM MgSO₄, 3% fetal calf serum, and 10 mM HEPES) for 30 min on ice.
[…] Binding of soluble moGPNMB-Fc to cells was examined by FACSCanto (Becton Dickinson, San Jose, CA). In some experiments, the binding was performed in the presence of known GPNMB binding inhibitors (heparin, dextran sulfate, all purchased from Sigma).

Row | Binder | IC50 [1] | EC50 [3] | EC50 [4] | other results
1 | B1 | 9.49 nM |  |  | 
2 | B2 | 5.08 nM |  |  | IC50 [2]: 4.05 nM
3 | B3 |  | 0.38 nM | 0.83 nM | 
4 | B4 |  |  |  | IC50 (read off the curve) [5]: ~4000 nM
5 | B5 |  |  |  | EC50 (read off the curve) [6]: ~0.1 mg/L
6 | B6 |  | 5.83 nM | 2.15 nM | 
